According to patent US12331310B2, “Cell membrane penetrating conjugates for gene editing” (priority 2019, dated 2025):
Where “and” joins values, the source holds several entries; their conditions need not be identical. Equal values may be shown once.

B1: EfsQNR: recombinant β helical pentapeptide-repeat protein EfsQNR, amino acid sequence SEQ ID NO: 2 (protein)
chain: GSHMKITYPLPPNLPEQLPLLTNCQLEDEAILENHLYQQIDLPNQEVRNLVFRDAVFDHLSLANGQFASFDCSNVRFEACDFSNVEWLSGSFHRVTFLRCNLTGTNFADSYLKDCLFEDCKADYASFRFANFNLVHFNQTRLVESEFFEVTWKKLLLEACDLTESNWLNTSLKGLDFSQNTFERLTFSPNYLSGLKVTPEQAIYLASALGLVIT
modifications: Amino acid sequence of EfsQNR protein
B2: AlbG: recombinant β helical pentapeptide-repeat protein AlbG, amino acid sequence SEQ ID NO: 1 (protein)
chain: MPAKTLESKDYCGESFVSEDRSGQSLESIRFEDCTFRQCNFTEAELNRCKFRECEFVDCNLSLISIPQTSFMEVRFVDCKMLGVNWTSAQWPSVKMEGALSFERCILNDSLFYGLYLAGVKMVECRIHDANFTEADCEDADFTQSDLKGSTFHNTKLTGASFIDAVNYHIDIFHNDIKRARFSLPEAASLLNSLDIELSD
modifications: Amino acid sequence of AlbG protein

How the values were obtained:
Assay type in all cases: cell-based
HeLa cells [1] = assay: Cellular uptake of drug (ruthenium metal complex), monitored by MTT assay; settings: 24 hours, uptake correlated to cell death by MTT assay
Experimental: Cellular uptake of drug—HeLa cells were used for determining the enhanced uptake of the drug using the cell penetrating conjugate of the present invention. HeLa cells were seeded at a concentration of 10,000 in a 96-well plate and allowed to grow for 6-8 hours. Ruthenium metal complex and EfsQNR were mixed in different ratios of 1:1, 1:2, and 1:3 to form a conjugate, which was subsequently added to the cells. […] The cell death after 24 hours was monitored by MTT assay as described previously and was correlated to the percentage uptake of ruthenium-EfsQNR conjugate by HeLa cells.
FIG. 16 depicts the cellular uptake of the ruthenium metal complex Ru(CO)3Cl glycinate in HeLa cells. The ruthenium metal complex was conjugated with EfsQNR protein to form a conjugate consisting of ruthenium metal complex-EfsQNR. The HeLa cells were treated with the ruthenium metal complex-EfsQNR conjugate as described above (see “Cellular penetration studies” above) and uptake of the complex was detected by checking the viability of the cells by performing MTT assay as described previously. […] Therefore, it can be ascertained that the conjugate comprising EfsQNR protein facilitated 50-fold higher cellular uptake as compared to ruthenium metal complex alone. […]

HeLa cells [2] = assay: MTT toxicity assay of AlbG and EfsQNR proteins; settings: 30 μM protein; for viability as compared to the control cells: MTT; for absorbance values at 570 nm in MTT assay: triplicates, control wells 1.341-1.413
Experimental: Toxicity assay—The industry-standard MTT assay (ex-Sigma Aldrich) was performed to analyse the toxicity of β-helical protein-cytotoxic drug conjugates against mammalian cells, for example HeLa cells. The cells were cultured by using standard protocol. One million cells were seeded in confocal plates (1 cm dish), grown for 6-8 h. A mixture of the cytotoxic drug and the EfsQNR protein (mixed at a ratio of 2:1) was added to the cells and incubated at room temperature for 15 minutes to 24 h to 72 h. After the incubation, the cells were washed with PBS and treated with MTT and further incubated for 24 hours. The cells were then washed and analysed for absorbance values at 570 nm. Viable cells with active metabolism convert MTT into a purple coloured formazan product with an absorbance maximum near 570 nm. Dead cells cannot convert MTT into formazan therefore, by analysing the absorbance values at 570 nm percentage of viable cells can be calculated for a given protein or any other molecule.
MTT assay as described previously was employed to study toxicity of AlbG and EfsQNR proteins against HeLa cells. For the toxicity assay, samples of Placebo, control, AlbG (30 μM) and EfsQNR (30 μM) were used in triplicates. On observing the values, it can be appreciated that the cells treated with 30 μM of AlbG and 30 μM of EfsQNR display 95% viability as compared to the control cells.
The placebo for this experiment was 20 mM Tris buffer of pH 8.0, whereas, the control considered was only HeLa cells without adding any protein or other substrate.

[3] = tested on: yeast cells (Saccharomyces cerevisiae, Kluveromyces marxianus and Candida albicans); assay: Uptake of A-520 labelled proteins in yeast cells; settings: protein labelled with green fluorescent dye (A-520), 10 μM, 24 hours
Experimental: (§1) The uptake of labelled proteins was checked by treating E-coli and yeast (Kluveromyces) cells with different labelled proteins such as AlbG (SEQ ID NO: 1), EfsQNR (SEQ ID NO: 2). E coli or Kluveromyces cells were inoculated and grown overnight until OD reached 0.6. The cells were diluted to 50 times and 3 micromolar labelled protein (conjugate) was added. The cells were further grown under standard growth condition (37° C. shaking condition) for 24 h. The treated cells were then centrifuged and washed in PBS for 3-4 times. Then the cells were dispersed in 100 microliter PBS and then imaged in fluorescence/confocal microscope.
(§2) • Respective bacteria and yeast strains were inoculated the day before the experiment and allowed to grow overnight; • The cells were centrifuged and 2 ml fresh media was added; • 100-200 μL of cells were added to the mixture; • 10 μM of green labelled CPP was added; • Fresh media was added to bring the volume to 1 mL; • After 24 hours the treated cells were centrifuged and washed in PBS 3-4 times; • the cells were dispersed in 100 microliter PBS and then imaged in fluorescence/confocal microscope (FIGS. 25 and 26). […]

zebrafish embryos = assay: Uptake of A-520 labelled proteins in zebrafish embryos; settings: protein labelled with green fluorescent dye (A-520), 10 μM, 2 h
[4] = tested on: drug resistant strains of bacteria (Pseudovibrio sp. Ad37/5/13/14 and Enterobacter); assay: Uptake of A-520 labelled proteins in bacteria; settings: protein labelled with green fluorescent dye (A-520), 10 μM, 24 hours
Experimental: as §1, §2

drosophila embryos = assay: Uptake of A-520 labelled proteins in drosophila embryos; settings: protein labelled with green fluorescent dye (A-520), 10 μM, 2 h
[5] = tested on: plant cells (Arabidopsis); assay: Uptake of A-520 labelled proteins in plant cells; settings: protein labelled with green fluorescent dye (A-520), 20 μM, 24 hours
Experimental: • Respective bacteria and yeast strains were inoculated the day before the experiment and allowed to grow overnight; • The cells were centrifuged and 2 ml fresh media was added; • 100-200 μL of cells were added to the mixture; • 10 μM of green labelled CPP was added; • Fresh media was added to bring the volume to 1 mL; • After 24 hours the treated cells were centrifuged and washed in PBS 3-4 times; • the cells were dispersed in 100 microliter PBS and then imaged in fluorescence/confocal microscope (FIGS. 25 and 26). Protocol for Uptake in Plant Cells (Arabidopsis): • Plants were grown for 7 days prior to the experiment; • 20 μM of different cell-penetrating proteins such as AlbG (SEQ ID NO: 1), EfsQNR (SEQ ID NO: 2) labelled with a green fluorescent dye (A-520) were added to the plants in buffer [3 plants grown for 7 days] in 500 μL PBS; • The mixture was placed in a growth room for 24 hours under standard growth conditions (kept static in a room of continuous supply of light and 23° C. temperature); • The plants were washed with PBS 3 times and fresh PBS was then added and cells visualized under microscope. Non-coloured cells such as the cells of the roots and stems were chosen for visualisation to avoid interference (FIGS. 23 and 24). […]

Row | Molecule | cellular uptake (HeLa cells [1]) | viability as compared to the control cells (HeLa cells [2]) | absorbance values at 570 nm in MTT assay (HeLa cells [2]) | uptake observed by confocal laser scanning microscopy [3] | uptake observed by confocal laser scanning microscopy (zebrafish embryos) | uptake observed by confocal laser scanning microscopy [4] | uptake observed by confocal laser scanning microscopy (drosophila embryos) | uptake observed by confocal laser scanning microscopy [5]
1 | NCC(=O)O.[C-]#[O+].[C-]#[O+].[C-]#[O+].[Cl][Ru] [ruthenium metal complex, Ru(CO)3Cl glycinate] | 0.5% | – | – | – | – | – | – | –
2 | B1 | – | 95% | 0.901 and 1.111 and 0.971 | taken up | taken up | taken up | taken up | taken up
3 | B2 | – | 95% | 1.03 and 0.932 and 1.002 | taken up | taken up | taken up | taken up | taken up
